Target: oncofetal fibronectin (human) (UniProt P02751)
Experiment: lateral flow sandwich; FDC-6 blue latex conjugate and immobilised goat anti-fibronectin; TLiIQ reflectance reader
Conditions: scale: reflectance signal

UniProt P02751, sequence (P02751 32-2477): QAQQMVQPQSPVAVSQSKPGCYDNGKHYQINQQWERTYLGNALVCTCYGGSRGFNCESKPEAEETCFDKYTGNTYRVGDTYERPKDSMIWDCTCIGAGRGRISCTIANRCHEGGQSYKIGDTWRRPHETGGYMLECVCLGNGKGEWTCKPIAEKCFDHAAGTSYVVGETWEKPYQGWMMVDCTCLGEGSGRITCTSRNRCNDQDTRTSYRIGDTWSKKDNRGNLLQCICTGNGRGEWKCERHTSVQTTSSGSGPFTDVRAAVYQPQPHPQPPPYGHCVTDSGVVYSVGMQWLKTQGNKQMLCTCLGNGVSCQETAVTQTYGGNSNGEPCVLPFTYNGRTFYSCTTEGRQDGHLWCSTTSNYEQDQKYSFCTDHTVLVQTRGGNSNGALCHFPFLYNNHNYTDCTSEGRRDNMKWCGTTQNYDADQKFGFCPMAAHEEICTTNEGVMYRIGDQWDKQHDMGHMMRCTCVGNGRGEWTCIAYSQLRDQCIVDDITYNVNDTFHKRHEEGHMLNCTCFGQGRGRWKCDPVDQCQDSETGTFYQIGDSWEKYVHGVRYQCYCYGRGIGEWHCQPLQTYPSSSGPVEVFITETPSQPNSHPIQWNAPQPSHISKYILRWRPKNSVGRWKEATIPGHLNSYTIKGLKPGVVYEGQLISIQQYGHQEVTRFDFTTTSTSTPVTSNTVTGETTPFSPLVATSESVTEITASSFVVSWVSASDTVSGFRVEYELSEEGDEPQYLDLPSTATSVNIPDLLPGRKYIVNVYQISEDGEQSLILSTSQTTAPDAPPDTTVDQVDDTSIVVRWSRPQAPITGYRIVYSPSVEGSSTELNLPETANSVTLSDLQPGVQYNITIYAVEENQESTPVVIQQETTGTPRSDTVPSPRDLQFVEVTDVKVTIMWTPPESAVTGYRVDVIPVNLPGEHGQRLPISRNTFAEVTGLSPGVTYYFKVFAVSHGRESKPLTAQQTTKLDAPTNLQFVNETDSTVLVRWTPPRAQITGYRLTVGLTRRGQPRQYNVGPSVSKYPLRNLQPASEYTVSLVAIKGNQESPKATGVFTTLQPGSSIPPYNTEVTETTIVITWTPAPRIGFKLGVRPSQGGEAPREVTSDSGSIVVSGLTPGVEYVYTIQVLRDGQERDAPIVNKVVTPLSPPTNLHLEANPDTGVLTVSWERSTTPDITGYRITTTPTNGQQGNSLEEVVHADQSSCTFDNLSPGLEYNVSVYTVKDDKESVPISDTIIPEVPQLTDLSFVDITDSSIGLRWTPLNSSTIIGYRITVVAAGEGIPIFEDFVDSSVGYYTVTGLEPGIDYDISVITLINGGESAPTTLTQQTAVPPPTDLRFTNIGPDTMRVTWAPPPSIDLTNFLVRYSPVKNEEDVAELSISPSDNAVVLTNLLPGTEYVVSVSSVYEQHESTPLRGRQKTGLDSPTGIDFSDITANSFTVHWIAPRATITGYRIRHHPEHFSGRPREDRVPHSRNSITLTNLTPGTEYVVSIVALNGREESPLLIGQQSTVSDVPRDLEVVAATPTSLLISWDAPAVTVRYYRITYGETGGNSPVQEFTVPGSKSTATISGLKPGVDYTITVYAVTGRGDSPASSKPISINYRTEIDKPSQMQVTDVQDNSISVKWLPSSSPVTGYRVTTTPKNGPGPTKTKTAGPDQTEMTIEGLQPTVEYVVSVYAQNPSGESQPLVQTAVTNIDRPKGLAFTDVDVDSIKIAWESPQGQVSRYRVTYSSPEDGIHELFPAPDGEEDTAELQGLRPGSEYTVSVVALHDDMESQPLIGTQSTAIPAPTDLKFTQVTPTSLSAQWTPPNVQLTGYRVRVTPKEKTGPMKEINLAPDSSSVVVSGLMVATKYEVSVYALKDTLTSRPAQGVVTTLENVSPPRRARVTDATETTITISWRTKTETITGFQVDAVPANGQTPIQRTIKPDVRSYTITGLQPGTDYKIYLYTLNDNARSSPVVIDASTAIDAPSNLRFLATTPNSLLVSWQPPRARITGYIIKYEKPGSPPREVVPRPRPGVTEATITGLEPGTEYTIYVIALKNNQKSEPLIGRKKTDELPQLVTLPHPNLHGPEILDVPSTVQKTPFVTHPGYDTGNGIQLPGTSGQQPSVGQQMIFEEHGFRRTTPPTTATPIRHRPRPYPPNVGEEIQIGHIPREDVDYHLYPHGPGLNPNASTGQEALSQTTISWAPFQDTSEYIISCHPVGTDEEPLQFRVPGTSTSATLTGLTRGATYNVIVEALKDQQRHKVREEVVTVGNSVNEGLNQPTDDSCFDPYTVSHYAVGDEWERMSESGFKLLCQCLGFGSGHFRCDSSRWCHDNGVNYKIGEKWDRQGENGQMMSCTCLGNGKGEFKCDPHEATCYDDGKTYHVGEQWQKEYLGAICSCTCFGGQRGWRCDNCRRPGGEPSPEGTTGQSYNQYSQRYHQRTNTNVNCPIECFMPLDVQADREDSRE

reflectance signal: 0.315
Substance: monoclonal antibody FDC-6, produced by the hybridoma ATCC HB 9018

Reference: patent US20060024723A1
